Data from the FLAb antibody collection (doi:10.7554/elife.23156).

B1: scFv; the commonest letter at each place (parent)
chain 1: EVKLDETGGGLVQPGRPMKLSCVASGFTFSDYWMNWVRQSPEKGLEWVAQIRNKPYNYETYYSDSVKGRFTISRDDSKSSVYLQMNNLRVEDMGIYYCTGSYYGMDYWGQGTSVTVS
chain 2: DVVMTQTPLSLPVSLGDQASISCRSSQSLVHSNGNTYLRWYLQKPGQSPKVLIYKVSNRFSGVPDRFSGSGSGTDFTLKISRVEAEDLGVYFCSQSTHVPWTFGGGTKLEIK

Legend:
fluorescein = variants of: B1; assay: Kd (Tite-Seq); conditions: with fluorescein; format: scFv 4-4-20, heavy + light
[1] = variants of: B1; assay: yeast surface expression (ratio to wild type); higher = more expressed; conditions: format: scFv 4-4-20, heavy + light

Row | Variant | Kd (fluorescein) | yeast surface expression [1]
1 | chain 1 Y32S W33S | ≥ 10 µM | 0.838
2 | chain 1 Y107W W108T | ≤ 0.000316 µM | 0.647
3 | chain 1 D31T V37W | 6.61 µM | 0.726
4 | chain 1 Y32K M34F W36H | ≥ 10 µM | 0.381
5 | chain 1 Y32L W36Y | 3.74 µM | 0.682
6 | chain 1 G100C W108G | ≥ 10 µM | 0.401
7 | chain 1 S101L Y103K | ≥ 10 µM | 0.524
8 | chain 1 F29S V37C | 0.00638 µM | 0.758
9 | chain 1 S101T M105T | ≥ 10 µM | 0.928
10 | chain 1 M105I Y107S | ≥ 10 µM | 0.853
11 | chain 1 S101C G104C | ≥ 10 µM | 0.33
12 | chain 1 M34C V37F | ≥ 10 µM | 0.777
13 | chain 1 M34Y W36V | ≥ 10 µM | 0.522
14 | chain 1 D31G V37N | 0.00785 µM | 0.512
15 | chain 1 W33A N35S W36M | ≥ 10 µM | 0.823
16 | chain 1 M34P W36N | ≥ 10 µM | 0.506
17 | chain 1 W33E M34W | ≥ 10 µM | 0.966
18 | chain 1 Y103F M105T | ≥ 10 µM | 1.01
19 | chain 1 F29T Y32S W33H | ≥ 10 µM | 0.659
20 | chain 1 T28N D31I Y32R | ≥ 10 µM | 0.627

Row | Variant | Kd (fluorescein) | yeast surface expression [1]
21 | chain 1 G100Q W108R | ≥ 10 µM | 0.232
22 | chain 1 T28R S30F | ≤ 0.000316 µM | 0.739
23 | chain 1 G104E Y107A | ≥ 10 µM | 0.736
24 | chain 1 T28N N35T | ≥ 10 µM | 0.93
25 | chain 1 Y107S G109C | ≥ 10 µM | 0.174
26 | chain 1 S30W N35V | ≥ 10 µM | 0.273
27 | chain 1 G104R M105R | ≥ 10 µM | 0.672
28 | chain 1 T28M | 0.00265 µM | 1.02
29 | chain 1 T28L | 0.00166 µM | 0.955
30 | chain 1 T28A | 0.00158 µM | 1.01
31 | chain 1 W33A V37W | ≥ 10 µM | 0.625
32 | chain 1 D31L Y32M | ≥ 10 µM | 0.772
33 | chain 1 M105F D106L | ≥ 10 µM | 0.356
34 | chain 1 S30E D31N | 0.000504 µM | 0.934
35 | chain 1 F29P V37W | ≥ 10 µM | 0.685
36 | chain 1 Y102H W108M | ≤ 0.000316 µM | 0.91
37 | chain 1 M34R | 9.5 µM | 0.851
38 | chain 1 M34H | ≥ 10 µM | 0.737
39 | chain 1 G100L D106L | ≥ 10 µM | 0.395
40 | chain 1 T28W F29M | 0.0139 µM | 0.897

Row | Variant | Kd (fluorescein) | yeast surface expression [1]
41 | chain 1 S101I Y107K | ≥ 10 µM | 0.29
42 | chain 1 T28M Y32W | ≥ 10 µM | 0.903
43 | chain 1 S30I M34P | ≥ 10 µM | 0.36
44 | chain 1 S101N Y107M | ≥ 10 µM | 0.616
45 | chain 1 F29N V37T | ≥ 10 µM | 0.668
46 | chain 1 D31S Y32G | 0.24 µM | 0.78
47 | chain 1 T28Y F29W | ≥ 10 µM | 0.672
48 | chain 1 G104Q M105C | ≥ 10 µM | 0.62
49 | chain 1 G100T S101D | ≥ 10 µM | 0.83
50 | chain 1 S30G M34H | 5.66 µM | 0.659
51 | chain 1 S30G M34I | 0.00239 µM | 0.889
52 | chain 1 G104A D106Q | ≥ 10 µM | 0.575
53 | chain 1 M105S Y107W | ≥ 10 µM | 0.826
54 | chain 1 S30E W33K | ≥ 10 µM | 0.771
55 | chain 1 G100I Y102M | ≥ 10 µM | 1.08
56 | chain 1 T28S S30M | 0.00175 µM | 0.95
57 | chain 1 Y102V D106I | ≥ 10 µM | 0.421
58 | chain 1 D31N N35T | ≥ 10 µM | 0.86
